Like-named read-outs stand apart in the source and are kept apart here. Positions of bridges follow the written chain, without caps; N, C: chain ends. Non-standard residues stand in square brackets, D forms with d. Trp(1-Me) = Cn1cc(C[C@H](N)C(=O)O)c2ccccc21; NMeI = CC[C@H](C)[C@H](NC)C(=O)O; β3hI = CC[C@H](C)[C@H](N)CC(=O)O; Nle = CCCC[C@H](N)C(=O)O; Nva = CCC[C@H](N)C(=O)O; Sar = CNCC(=O)O
Columns and labels:
[1] = biological target: T1, Human C3 (Complement tech cat #A113c) (human, UniProt P01024 23-1663); assay: cell-based or functional assay
T1 sequence (P01024 23-1663 limits assumed): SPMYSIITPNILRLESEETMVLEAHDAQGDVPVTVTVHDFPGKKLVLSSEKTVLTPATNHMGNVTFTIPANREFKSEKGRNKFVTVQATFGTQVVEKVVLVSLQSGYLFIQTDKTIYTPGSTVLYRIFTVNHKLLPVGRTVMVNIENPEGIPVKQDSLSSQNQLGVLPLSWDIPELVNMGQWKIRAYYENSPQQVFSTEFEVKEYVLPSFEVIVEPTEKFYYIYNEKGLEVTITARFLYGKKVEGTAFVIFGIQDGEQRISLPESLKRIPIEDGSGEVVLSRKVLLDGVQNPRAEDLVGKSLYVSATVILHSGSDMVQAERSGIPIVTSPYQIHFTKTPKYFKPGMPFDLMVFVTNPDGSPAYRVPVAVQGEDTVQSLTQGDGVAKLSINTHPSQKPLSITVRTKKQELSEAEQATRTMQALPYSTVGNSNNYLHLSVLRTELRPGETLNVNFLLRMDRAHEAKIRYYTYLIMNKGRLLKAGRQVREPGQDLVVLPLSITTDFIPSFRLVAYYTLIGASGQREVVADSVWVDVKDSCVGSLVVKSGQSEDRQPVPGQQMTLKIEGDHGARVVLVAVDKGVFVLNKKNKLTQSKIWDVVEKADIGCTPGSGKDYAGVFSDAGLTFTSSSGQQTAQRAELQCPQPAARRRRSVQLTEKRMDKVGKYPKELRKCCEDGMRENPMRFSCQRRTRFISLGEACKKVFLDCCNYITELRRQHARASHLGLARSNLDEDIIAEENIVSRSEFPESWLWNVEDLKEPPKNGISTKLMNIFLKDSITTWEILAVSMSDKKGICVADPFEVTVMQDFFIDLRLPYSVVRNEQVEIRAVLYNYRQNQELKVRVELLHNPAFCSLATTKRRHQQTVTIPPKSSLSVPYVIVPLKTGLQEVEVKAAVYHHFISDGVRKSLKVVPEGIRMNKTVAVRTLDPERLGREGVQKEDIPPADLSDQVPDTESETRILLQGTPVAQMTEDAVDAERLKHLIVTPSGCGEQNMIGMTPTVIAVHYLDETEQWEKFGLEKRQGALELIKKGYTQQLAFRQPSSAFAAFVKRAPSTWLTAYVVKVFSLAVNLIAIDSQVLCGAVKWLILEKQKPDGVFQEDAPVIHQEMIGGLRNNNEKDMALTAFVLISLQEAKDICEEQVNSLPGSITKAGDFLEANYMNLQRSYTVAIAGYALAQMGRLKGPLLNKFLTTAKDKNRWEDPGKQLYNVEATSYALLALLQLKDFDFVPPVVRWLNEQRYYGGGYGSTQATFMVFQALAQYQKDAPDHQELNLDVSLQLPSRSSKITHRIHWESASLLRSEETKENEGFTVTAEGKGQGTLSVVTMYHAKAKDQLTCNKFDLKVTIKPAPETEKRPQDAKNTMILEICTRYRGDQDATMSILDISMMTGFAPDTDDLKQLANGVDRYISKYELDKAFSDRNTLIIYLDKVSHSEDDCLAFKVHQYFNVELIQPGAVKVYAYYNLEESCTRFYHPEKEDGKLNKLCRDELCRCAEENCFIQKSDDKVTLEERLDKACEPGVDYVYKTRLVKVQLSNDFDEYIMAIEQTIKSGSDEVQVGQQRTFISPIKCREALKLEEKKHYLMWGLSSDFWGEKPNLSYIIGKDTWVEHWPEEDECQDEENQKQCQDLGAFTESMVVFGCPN

[2] = biological target: T1, Human C3 (Complement tech cat #A113c); assay: cell-based or functional assay; remark: listed apart in the source
[3] = biological target: T1, Human C3 (Complement tech cat #A113c); assay: SPR (Biacore T200), human C3 immobilised, peptide injected, 1:1 fit
Experimental: Surface plasmon resonance (SPR) was used to characterize peptides with respect to their binding affinity (Kd) for C3. Human C3 (Complement tech cat #A113c) was immobilised on individual flow cells of CM5 sensor chips (GE Healthcare) using standard amine coupling to a density of approximately 3000 resonance units (RU) in a buffer consisting of 10 mM phosphate pH 7.4, 150 mM NaCl, 0.05% Tween20.
For interaction experiments a multi-cycle experiment approach was used and performed using a BiacoreT200™ instrument (GE Healthcare) at 25° C. Peptides were injected in increasing concentration series (6-8 different concentrations) for 60-120 sat a flow rate of 30 µL/min in a buffer consisting of 10 mM Tris buffer at pH 7.4, with 150 mM NaCl and 0.05% Tween20. This was followed by a dissociation period for up to 10 min. The C3 surface was regenerated between runs by a 45 s injection of 3 M MgCl_2.

[4] = biological target: T1, Human C3 (Complement tech cat #A113c); assay: cell-based or functional assay; remark: listed apart in the source
[5] = biological target: T1, Human C3 (Complement tech cat #A113c); assay: SPR (Biacore T200), human C3 immobilised, peptide injected, 1:1 fit; remark: listed apart in the source
Outline: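 Human C3 amine-coupled on CM5 chips to about 3000 RU. Multi-cycle runs on Biacore T200 at 25° C: peptides at 6-8 rising concentrations, 60-120 s at 30 µL/min in 10 mM Tris pH 7.4, 150 mM NaCl, 0.05% Tween20, dissociation up to 10 min; 3 M MgCl2 regeneration. Kd derived.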

Binder | Kd [3] [nM] | Kd [5] [nM] | IC50, CP hemolysis [1] [nM] | CP hemolysis IC50 [2] [nM] | inhibition of hemolysis IC50 [4] [nM]
Ac-IC[Nle]WQDWGEHRCT-NH2 (disulfide 2-12; SMILES CCCC[C@@H]1NC(=O)[C@@H](NC(=O)[C@@H](NC(C)=O)[C@@H](C)CC)CSSC[C@@H](C(=O)N[C@H](C(N)=O)[C@@H](C)O)NC(=O)[C@H](CCCNC(=N)N)NC(=O)[C@H](Cc2c[nH]cn2)NC(=O)[C@H](CCC(=O)O)NC(=O)CNC(=O)[C@H](Cc2c[nH]c3ccccc23)NC(=O)[C@H](CC(=O)O)NC(=O)[C@H](CCC(N)=O)NC(=O)[C@H](Cc2c[nH]c3ccccc23)NC1=O) [Ac-IC(1)XWQDWGEHRC(1)T-NH2 with Norleucine at position 3] | – | – | 480 | – | –
Ac-ICIWQDWGEHRCT-NH2 (disulfide 2-12; SMILES CC[C@H](C)[C@H](NC(C)=O)C(=O)N[C@H]1CSSC[C@@H](C(=O)N[C@H](C(N)=O)[C@@H](C)O)NC(=O)[C@H](CCCNC(=N)N)NC(=O)[C@H](Cc2c[nH]cn2)NC(=O)[C@H](CCC(=O)O)NC(=O)CNC(=O)[C@H](Cc2c[nH]c3ccccc23)NC(=O)[C@H](CC(=O)O)NC(=O)[C@H](CCC(N)=O)NC(=O)[C@H](Cc2c[nH]c3ccccc23)NC(=O)[C@H]([C@@H](C)CC)NC1=O) [Compound 2] | 16 | 16 | < 100 | 94 | < 100
Ac-ICVWQDWGEHRCT-NH2 (disulfide 2-12; SMILES CC[C@H](C)[C@H](NC(C)=O)C(=O)N[C@H]1CSSC[C@@H](C(=O)N[C@H](C(N)=O)[C@@H](C)O)NC(=O)[C@H](CCCNC(=N)N)NC(=O)[C@H](Cc2c[nH]cn2)NC(=O)[C@H](CCC(=O)O)NC(=O)CNC(=O)[C@H](Cc2c[nH]c3ccccc23)NC(=O)[C@H](CC(=O)O)NC(=O)[C@H](CCC(N)=O)NC(=O)[C@H](Cc2c[nH]c3ccccc23)NC(=O)[C@H](C(C)C)NC1=O) [Compound A] | 130 | – | 350 | 350 | –
Ac-ICIWQDWGEHRCTGAES-NH2 (disulfide 2-12; SMILES CC[C@H](C)[C@H](NC(C)=O)C(=O)N[C@H]1CSSC[C@@H](C(=O)N[C@H](C(=O)NCC(=O)N[C@@H](C)C(=O)N[C@@H](CCC(=O)O)C(=O)N[C@@H](CO)C(N)=O)[C@@H](C)O)NC(=O)[C@H](CCCNC(=N)N)NC(=O)[C@H](Cc2c[nH]cn2)NC(=O)[C@H](CCC(=O)O)NC(=O)CNC(=O)[C@H](Cc2c[nH]c3ccccc23)NC(=O)[C@H](CC(=O)O)NC(=O)[C@H](CCC(N)=O)NC(=O)[C@H](Cc2c[nH]c3ccccc23)NC(=O)[C@H]([C@@H](C)CC)NC1=O) [Compound 15] | 14 | 14 | – | 47 | < 100
Ac-IC[β3hI]WQDWGEHRCT-NH2 (disulfide 2-12) [Ac-IC(1)XWQDWGEHRC(1)T-NH2 with Beta-Homo-Isoleucine at position 3] | – | – | > 10000 | – | –
Ac-IC[Nva]WQDWGEHRCT-NH2 (disulfide 2-12; SMILES CCC[C@@H]1NC(=O)[C@@H](NC(=O)[C@@H](NC(C)=O)[C@@H](C)CC)CSSC[C@@H](C(=O)N[C@H](C(N)=O)[C@@H](C)O)NC(=O)[C@H](CCCNC(=N)N)NC(=O)[C@H](Cc2c[nH]cn2)NC(=O)[C@H](CCC(=O)O)NC(=O)CNC(=O)[C@H](Cc2c[nH]c3ccccc23)NC(=O)[C@H](CC(=O)O)NC(=O)[C@H](CCC(N)=O)NC(=O)[C@H](Cc2c[nH]c3ccccc23)NC1=O) [Ac-IC(1)XWQDWGEHRC(1)T-NH2 with Norvaline at position 3] | – | – | > 1000 | – | –

More lines, in order of falling Kd [3], values ahead:

Kd [3] [nM] | Kd [5] [nM] | Binder | IC50, CP hemolysis [1] [nM] | CP hemolysis IC50 [2] [nM] | inhibition of hemolysis IC50 [4] [nM]
230 | – | Ac-ICVWQDWGEHRCTGAES-NH2 (disulfide 2-12; SMILES CC[C@H](C)[C@H](NC(C)=O)C(=O)N[C@H]1CSSC[C@@H](C(=O)N[C@H](C(=O)NCC(=O)N[C@@H](C)C(=O)N[C@@H](CCC(=O)O)C(=O)N[C@@H](CO)C(N)=O)[C@@H](C)O)NC(=O)[C@H](CCCNC(=N)N)NC(=O)[C@H](Cc2c[nH]cn2)NC(=O)[C@H](CCC(=O)O)NC(=O)CNC(=O)[C@H](Cc2c[nH]c3ccccc23)NC(=O)[C@H](CC(=O)O)NC(=O)[C@H](CCC(N)=O)NC(=O)[C@H](Cc2c[nH]c3ccccc23)NC(=O)[C@H](C(C)C)NC1=O) [Compound D] | – | 210 | –
160 | – | Ac-ICVWQDWGEHRCS-NH2 (disulfide 2-12; SMILES CC[C@H](C)[C@H](NC(C)=O)C(=O)N[C@H]1CSSC[C@@H](C(=O)N[C@@H](CO)C(N)=O)NC(=O)[C@H](CCCNC(=N)N)NC(=O)[C@H](Cc2c[nH]cn2)NC(=O)[C@H](CCC(=O)O)NC(=O)CNC(=O)[C@H](Cc2c[nH]c3ccccc23)NC(=O)[C@H](CC(=O)O)NC(=O)[C@H](CCC(N)=O)NC(=O)[C@H](Cc2c[nH]c3ccccc23)NC(=O)[C@H](C(C)C)NC1=O) [Compound G] | – | 180 | –
16 | 16 | Ac-ICIWQDWGEHRCS-NH2 (disulfide 2-12; SMILES CC[C@H](C)[C@H](NC(C)=O)C(=O)N[C@H]1CSSC[C@@H](C(=O)N[C@@H](CO)C(N)=O)NC(=O)[C@H](CCCNC(=N)N)NC(=O)[C@H](Cc2c[nH]cn2)NC(=O)[C@H](CCC(=O)O)NC(=O)CNC(=O)[C@H](Cc2c[nH]c3ccccc23)NC(=O)[C@H](CC(=O)O)NC(=O)[C@H](CCC(N)=O)NC(=O)[C@H](Cc2c[nH]c3ccccc23)NC(=O)[C@H]([C@@H](C)CC)NC1=O) [Compound 21] | – | 77 | < 100
0.12 | 0.12 | H-[dY]ICI[Trp(1-Me)]QDW[Sar]AHRC[NMeI]-NH2 (disulfide 3-13; SMILES CC[C@H](C)[C@H](NC(=O)[C@H](N)Cc1ccc(O)cc1)C(=O)N[C@H]1CSSC[C@@H](C(=O)N(C)[C@H](C(N)=O)[C@@H](C)CC)NC(=O)[C@H](CCCNC(=N)N)NC(=O)[C@H](Cc2c[nH]cn2)NC(=O)[C@H](C)NC(=O)CN(C)C(=O)[C@H](Cc2c[nH]c3ccccc23)NC(=O)[C@H](CC(=O)O)NC(=O)[C@H](CCC(N)=O)NC(=O)[C@H](Cc2cn(C)c3ccccc23)NC(=O)[C@H]([C@@H](C)CC)NC1=O) [Compound 48] | – | – | < 100
